The results in this text go back to patent US20240158500A1 (UCL BUSINESS, published 2024).

Test [1] concerns the target commercially sourced CD160 protein (UniProt O95971). Briefly: ELISA, coating antigen CD160-His (Commercial CD160), BY55-huIgG1 titrated, OD 450nm. The table under panel C repeats the value.
Test [2] concerns the target CD160 fused with Twin streptag (panning reagent from transfected 293T supernatant, unpurified or purified via its Fc region) (human) (UniProt O95971). Briefly: ELISA, coating antigen CD160-Fc purified (Purified CD160 mIgG2a Fc), BY55-huIgG1 titrated, OD 450nm. The table under panel C repeats the value. The curve has no upper plateau in the range shown.
The target is the same in test [3]. Briefly: ELISA, coating antigen HEK supernatant (unpurified CD160 mIgG2a Fc), BY55-huIgG1 titrated, OD 450nm. The table under panel C repeats the value. The curve has no upper plateau in the range shown.
Test [4] concerns the target T1, purified CD160 (SPR analyte) (UniProt O95971 25-159, limits assumed).
T1 sequence (looked up): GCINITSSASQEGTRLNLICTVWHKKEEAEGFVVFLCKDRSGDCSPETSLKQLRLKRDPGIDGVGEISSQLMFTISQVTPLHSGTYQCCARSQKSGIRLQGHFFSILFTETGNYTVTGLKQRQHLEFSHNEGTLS
Briefly: SPR, Biacore T200, scFv captured on CM5 chip, CD160 as analyte, single-cycle kinetics, 1:1 Langmuir fit. As to the method:
FIG. 8—Characterization of the monoclonal scFv identified in the biopanning. [A] […] We identified five different CDR3H in which three were represented in multiple clones and […]. [B] Flow cytometry analysis of the five selected CDR3 expressed secreted as chimeric scFv fused with mIgG2aFc. […] [C] The affinity of these five scFv was determined using Biacore T200 technology. Individual scFvs were captured on a CM5 chip and CD160 was injected as analyte at 5 different concentration (3.70 nM, 11.11 nM, 33.33, nM, 100 nM and 300 nM) in a single-cycle kinetic study. The double-reference subtracted sensorgrams fitted with the 1:1 Langmuir binding model; kinetic and model fitting data are reported in the table.
The kinetic profile of the scFvs was studied by SPR using purified CD160 as the analyte and a range of high affinity scFvs were found (FIG. 8).

For BY55-huIgG1 (antibody), the EC50 in test [1] amounted to 0.14 µg/mL; in test [2] it was 0.21 µg/mL; in test [3], 0.06 µg/mL.

B1: anti-CD160 scFv clone 8 (PB9) (scFv)
scFv: QVNLQESGPGLVQPSETLSLTCTVSGFSLTNYGINWFRQPPGKGLEWMGTIWNDGGTDYNSALKSRLSISRDTSKSQVFLKMNSLQTEDTAIYFCARGMDAWGQGASVTVSSGGGGSGGGGSGGGGSDIQMTQSPASLSASLGETVSIECLASEDIYNNLAWYQQKPGKSPQLLIYYANSLQDGVPSRFSGSGSGTQYSLKINSLQSEDVATYFCQQYNNYPFTFGSGTKLELKR
notes: Rat scFv, VH-linker-VL
In test [4], B1 had a Kd of 4.92 nM, a koff of 0.00804 s⁻¹ and a kon of 1.63e+06 M⁻¹ s⁻¹.

B2: anti-CD160 scFv clone 10 (scFv)
scFv: EVQLVESGPGLVQPSETLSLTCTVSGFSLTSYGVNWFRQPPGKGLEWMGTIWNDGGTDYNSALKSRLSISRDTSKSQVFLKMNSLQTEDTAIYFCARGFEYWGQGTLVTVSSGGGGSGGGGSGGGGSDIVMTQSPKSMSISVGDRVTMNCKASQNVGKNIAWYQQKPGQSPKLLIYYASNRYTGVPDRFTGSGSGTDFTLTITNMQTEDLAVYYCLQYNYNPWTFGGGTKLELKR
notes: Rat scFv, VH-linker-VL
In test [4], B2 registered a Kd of 8.91 nM, a koff of 0.00245 s⁻¹ and a kon of 275000 M⁻¹ s⁻¹.

B3: anti-CD160 scFv clone 2 (C25) (scFv)
scFv: EVQLVESGGDLVQPGRSLKLSCAASGFTFSNYGMAWVRQAPTKGLEWVASVSNGGGNTYYRDSVKGRFTISRDNAKNTQYLQMDSLRSEDTATYYCVTHNYESTVFDYWGQGAMVTVSSGGGGSGGGGSGGGGSEIVLTQSPTTMTASPGEKVTITCRASSSVSYMHWYQQKPGASPKPWIYETSKLASGVPDRFSGSGSGTSYSLTINNMEAEDAATYYCQQWNYPSMYTFGPGTKLELKR
In test [4], B3 came in with a dissociation constant Kd of 0.262 nM, an off-rate (koff) of 6.51e-05 s⁻¹ and a kon of 249000 M⁻¹ s⁻¹.

B4: anti-CD160 scFv clone 19 (scFv)
scFv: EVKLVESGGGLVQPGRSLKLSCAASGFTFSNYGMAWVRQAPTKGLEWVATISNGGGNTYYRDSVKGRFTISRDNAKNTQYLQMDSLRSEDTATYYCVAHNYESTVFDYWGQGAMVTVSSGGGGSGGGGSGGGGSEIVLTQSPTPMTASPGEKVTITCRASSSVSYMHWYQQKPGASPKPWIYETSKLASGVPDRFSGSGSGTSYSLTINNMEAEDAATYYCQQWNYPSMYTFGAGTKLELKR
notes: Rat scFv, VH-linker-VL
For B4, in test [4], the Kd is 5.31 nM, the koff stood at 0.000833 s⁻¹ and the kon was found to be 157000 M⁻¹ s⁻¹.

B5: anti-CD160 scFv clone 12 (scFv)
scFv: EVQLVESGGGFVQPGGSLKLSCAASGFTFSNYGMAWVRQAPKKGLEWVASISSGRGNTYYRDSVKGRFTISRDNAKNTQYLQMDSLRSEDTATYYCVTHNYESTIFDYWGQGVMVTVSSGGGGSGGGGSGGGGSEIVLTQSPTTMTASPGEKVTIICRASSSVSYMHWYQQKPGASPKPWIYETSKLASGVPDRFSGSGSGTSYSLTFNNMEAEDAATYYCQQWNYPSMYTFGAGTKLELKR
notes: Rat scFv, VH-linker-VL
Take B5: in test [4], the affinity, expressed as Kd, was 0.000853 nM; the koff came to 1.75e-07 s⁻¹; the kon is 205000 M⁻¹ s⁻¹.

B6: anti-CD160 scFv clone 16 (scFv)
scFv: QVNLQESGPGLVRPSETLSLTCTVSGFSLISYGVNWFRQPPGKGLEWMGTIWNDGGTDYNSALKSRLSISRDTSKSQVFLKMNSLQTEDTAIYFCARGFEHWGQGVMVTVSSGGGGSGGGGSGGGGSDIQMTQSPASLSASLGETVSIECLTSEDISNDSAWYQQKSGKSPQLLIYAASRLQDGVPSRFSGSGSGTRYSLKISGMQPEDEADYFCQQSYKYPLTFGSGTKLEIKR
notes: Rat scFv, VH-linker-VL
In test [4], B6 yielded a Kd of 8.72 nM, a koff of 0.00243 s⁻¹ and a kon of 279000 M⁻¹ s⁻¹.

B7: anti-CD160 scFv clone 11 (PB10) (scFv)
scFv: EVQLVESGGGLVQPGRSLKLSCAASGFTFSNYGMAWVRQAPTKGLEWVASINTSGGSTYYRDSVKGRFTISRDNAKSTLYLQMDSLRSEDTATYYCATIYYHDGSYYYAGWFAYWGQGTLVTVSSGGGGSGGGGSGGGGSDIVLTQSPALAVSPGERVSISCRASESVSTLMHWYQQKLGQQPKLLIYGASNLESGVPARFSGSGSGTDFTLNIDPVEADDIATYFCQQSWNGPWTFGGGTKLELKR
notes: Rat scFv, VH-linker-VL
With B7, in test [4], binding was put at a Kd of 9.15 nM, the koff was 0.00125 s⁻¹ and the on-rate (kon) was determined as 137000 M⁻¹ s⁻¹.

B8: anti-CD160 scFv clone 4 (scFv)
scFv: EVKLVESGGGLVQPGRPLKLSCAASGFTFSNYGMAWVRQAPKKGLEWVATISTGDDNTYYRDSVKGRFTISRDNAKNTQYLQMDSLRSEDTATYYCATHNYESTIFDYWGQGVMVTVSSGGGGSGGGGSGGGGSDIAITQSPASMTASPGERVTITCRASSSVSYMHWYQQKPGASPKPWIYETSKLASGVPDRFSGSGSGTSYSLTINNMEAEDAATYYCQQWNYPSMYTFGAGTKLELKR
In the case of B8, in test [4], binding was characterised by a dissociation constant (Kd) of 0.12 nM, the koff was 3.9e-05 s⁻¹ and the kon came to 325000 M⁻¹ s⁻¹.

B9: anti-CD160 scFv clone 3 (C83) (scFv)
scFv: QVNLQESGPGLVQPSETLSLTCTVSGFSLTSYGVYWVRQPPGKGLEWMGRIWNDGGTDYNPALKSRLSISRDTSKSQVFLKLNSLQTEDTAIYFCARGWTHWGQGTLVTVSSGGGGSGGGGSGGGGSDIQMTQSPASLSASLGETVSIECLASEDIYNNLAWYQQKPGKSPQLLIYYASSLQDGVPSRFSGSGSGTQYSLKINSLESEDVATYFCLQDSEYPPTFGGGTKLELKR
In test [4], B9 had a Kd of 1.5e-05 nM, a koff of 1.69e-08 s⁻¹ and a kon of 1.13e+06 M⁻¹ s⁻¹.

B10: anti-CD160 scFv clone 7 (scFv)
scFv: EVQLVESGPGLVQPSETLSLTCTVSGFSLTSHGVNWFRQPPGKGLEWMGTIWNDGGTDYNSALKSRLSIIRDTSKGQVFLKMNSLQTEDTAIYFCARGLAYWGQGTLVTVSSGGGGSGGGGSGGGGSDIQMTQSPASLSASLGETVNIECLASEDIYSDLAWYQQKPGKSPQLLIYNANSLQNGVPSRFSGSGSGTQYSLKINSLQSEDVATYFCQQYNNYPWTFGGGTKLEIKR
notes: Rat scFv, VH-linker-VL
For the molecule B10, in test [4], the affinity, expressed as Kd, was 0.33 nM; the koff is 0.00035 s⁻¹; the kon came to 1.06e+06 M⁻¹ s⁻¹.

B11: anti-CD160 scFv clone 6 (SC14) (scFv)
scFv: EVQLVESGGGFVQPGRSLKLSCAASGFTFSNYAMAWVRQAPTKGLEWVASINSGGGDSYYRDSVKGRFTISRDNAKNTQYLQMDSLRSEDTATYYCATHNYGSTIFDYWGQGAMVTVSSGGGGSGGGGSGGGGSEIILTQSPTTMTASPGEKVTITCRASSSVSYMHWYQQKPGASPKPWIYETSKLASGVPDRFSGSGSGTSYSLTINNMEAEDAATYYCQQWNYPSMYTFGAGTKLELKR
notes: Rat scFv, VH-linker-VL
On to B11, for which, in test [4], the Kd was 0.541 nM, the off-rate (koff) stood at 0.000143 s⁻¹ and the kon worked out at 264000 M⁻¹ s⁻¹.

B12: anti-CD160 scFv clone 9 (PB6) (scFv)
scFv: EVQLVESGGGLVQPGRSLKLSCAASGFTFSNYAMAWVRQAPTKGLEWVASISSGGGDTYYRDSVKGRFTISRDNSKNTQYLQMDSLRSEDTATYYCATHNYESTVLITWGQGASVTVSSGGGGSGGGGSGGGGSEIVLTQSPTTTAASPGERVTITCRASSSVSYMHWYQQKPGASPKPWIYETSKLASGVPDRFSGSGSGTSYSLTINNMEAEDAATYYCQQWNYPSMYTFGAGTKLEIKR
notes: Rat scFv, VH-linker-VL
In test [4], B12 had a Kd of 5.18 nM, a koff of 0.00211 s⁻¹ and a kon of 408000 M⁻¹ s⁻¹.

B13: anti-CD160 scFv clone 5 (C10) (scFv)
scFv: QVQLKESGPGLVQPSETLSLTCTVSGFSLTNYGINWFRQPPGKGLEWMGTIWNDGGTDYNSALKSRLTISRDTSKSQVFLKMNSLQTEDTAIYFCARGMEAWGQGASVTVSSGGGGSGGGGSGGGGSDIQLTQSPSLLSASVGDRVTLSCKGSQNINNYLAWYQQKLGEAPKLLIYNTNSLQTGIPSRFSGSGSGTDYTLTISSLQPEDFATYFCLQHNSGYTFGAGTKLEIKR
notes: Rat scFv, VH-linker-VL; also called 010
As for B13, in test [4], binding was put at a Kd of 18.4 nM, the koff was found to be 0.0305 s⁻¹ and the kon came out at 1.65e+06 M⁻¹ s⁻¹.

B14: anti-CD160 scFv clone 1 (C123) (scFv)
scFv: EVKLVESGGGLVQPGRSLKLSCAASGFIFSNYAMAWVRQAPTKGLEWVASVNSGGANTYYRDSVKGRFTISRDNAKNTQYLHIDSLRSEDTATYYCATHNYESTVFDYWGQGAMVTVSSGGGGSGGGGSSGGGGSEIVLTQSPTTMTASPGEKVTITCRASSSVSYMHWYQQKPGASPKPWIYETSKLASGVPDRFSGSGSGTSYSLTINNMEAEDAATYYCQQWNYPSMYTFGAGTKLELKR
notes: Rat scFv, VH-linker-VL
For the molecule B14, in test [4], the Kd was determined as 0.00154 nM, the koff was found to be 2.76e-07 s⁻¹ and the kon stood at 179000 M⁻¹ s⁻¹.
